# Assay results reported in publication PMC9927813, “Discovery of DNA aptamers targeting SARS-CoV-2 nucleocapsid protein and protein-binding epitopes for label-free COVID-19 diagnostics”.
# B1: NSP1 (ssDNA)
# DNA: CTCCTCTGACTGTAACCACGGCGCAAGCCGGGGTGTACGTGTTATACGTGCGTGTATCGAGCATAGGTAGTCCAGAAGCC
# B2: NSP3 (ssDNA)
# DNA: CTCCTCTGACTGTAACCACGCAGCGTCACGTGTTGTTCCCCATTGTACTGATTCGTCGTGGCATAGGTAGTCCAGAAGCC
# B3: NSP2 (ssDNA)
# DNA: CTCCTCTGACTGTAACCACGTATTGCGTTCCAGTCCCTATGACCAACGTCACAATAAGTCGCATAGGTAGTCCAGAAGCC
# B4: tNSP9 (ssDNA)
# DNA: TGTAACCACGTGCTAGATTACGTAACTGGTTGCTACGGGTTTCATCCTCGGCATAGGTA
# B5: biotinylated tNSP2 (ssDNA)
# DNA: CTGACTGTAACCACGTATTGCGTTCCAGTCCCTATGACCAACGTCACAATAAGTCGCATAGGTA
# B6: tNSP2 (ssDNA)
# DNA: CTGACTGTAACCACGTATTGCGTTCCAGTCCCTATGACCAACGTCACAATAAGTCGCATAGGTA
# B7: A48 (ssDNA)
# DNA: GCTGGATGTCGCTTACGACAATATTCCTTAGGGGCACCGCTACATTGACACATCCAGC
# B8: tNSP12 (ssDNA)
# DNA: TGTAACCACGTGGTTCGCCCAGTTCCGTTCAATACACTCAACCCTGCACGGCATAGGTA
# How the values were obtained:
# [1] = target: T1, SARS-CoV-2 nucleocapsid (N) protein, wild type (SARS-CoV-2 (wild type), UniProt P0DTC9 1-419); assay: BLI; BLI ([…], DPBS + 0.5 mM MgCl2 + 1 mM CaCl2, pH 7.4; […] (PBST); settings: protein: commercial; tags: His; chain copies: 2
# SARS-CoV-2 S1 protein = SARS-CoV-2 S1 protein (SARS-CoV-2, UniProt P0DTC2 13-685); assay: as above; settings: protein: commercial
# [2] = target: T1, SARS-CoV-2 nucleocapsid (N) protein, …; assay: BLI; aptamer on streptavidin sensor, PBST; BLI ([…], DPBS + 0.5 mM MgCl2 + 1 mM CaCl2, pH 7.4; […] (PBST); settings: protein: commercial; tags: His; chain copies: 2
# [3] = target: T1, SARS-CoV-2 nucleocapsid (N) protein, …; assay: BLI; N protein on Ni-NTA sensor; BLI ([…], DPBS + 0.5 mM MgCl2 + 1 mM CaCl2, pH 7.4; […] (PBST); settings: protein: commercial; tags: His; chain copies: 2
# [4] = target: SARS-CoV-2 N protein, in-house (SARS-CoV-2 (wild type), UniProt P0DTC9 1-419); assay: BLI; aptamer on streptavidin sensor, PBST; BLI ([…], DPBS + 0.5 mM MgCl2 + 1 mM CaCl2, pH 7.4; […] (PBST); settings: protein: recombinant; chain copies: 2
binder,measurement,setting,value
B1,Kd,[1],7.86 ± 1.17 nM
TAACCACGGCGCAAGCCGGGGTGTACGTGTTATACGTGCGTGTATCGAG (ssDNA) [biotinylated tNSP1],binding result,SARS-CoV-2 S1 protein,no binding
same,Kd,[2],4.83 ± 1.09 nM
TAACCACGGCGCAAGCCGGGGTGTACGTGTTATACGTGCGTGTATCGAG (ssDNA) [tNSP1],Kd,[3],4.53 ± 0.96 nM
CTTATGCACCAGGGGCCCGGTTCGGGCAGGCGCAAACACGGCATAGG (ssDNA) [tNSP10],Kd,[1],8.6 ± 1.2 nM
B2,Kd,[1],8.6 ± 1.06 nM
B3,Kd,[1],4.38 ± 1.21 nM
B4,Kd,[1],22.2 ± 1.87 nM
B5,binding result,SARS-CoV-2 S1 protein,no binding
same,Kd,[2],4.51 ± 1.5 nM
B6,Kd,[3],3.04 ± 1.53 nM
B7,Kd,[1],6.46 ± 1.04 nM
CAGCGTCACGTGTTGTTCCCCATTGTACTGATTCGTCGTGGCAT (ssDNA) [biotinylated tNSP3],binding result,SARS-CoV-2 S1 protein,no binding
same,Kd,[4],7.52 ± 0.5 nM
same,Kd,[2],2.91 ± 1.02 nM
CAGCGTCACGTGTTGTTCCCCATTGTACTGATTCGTCGTGGCAT (ssDNA) [tNSP3],Kd,[3],5.77 ± 1.17 nM
ATTCATGCGCCAATAGTGGTTTGGAAATGTCTCCCCATACGCATAG (ssDNA) [tNSP5],Kd,[1],12.6 ± 2.56 nM
B8,Kd,[1],6.05 ± 2.41 nM
